Measurements reported in paper PMC12468009, “Development of a QCM-D-Based Aptasensor for the Real-Time Detection of β-Lactoglobulin”.

Biological target: T1, beta-lactoglobulin (β-LG) (bovine? (cow's milk), UniProt P02754 17-178)
T1 sequence: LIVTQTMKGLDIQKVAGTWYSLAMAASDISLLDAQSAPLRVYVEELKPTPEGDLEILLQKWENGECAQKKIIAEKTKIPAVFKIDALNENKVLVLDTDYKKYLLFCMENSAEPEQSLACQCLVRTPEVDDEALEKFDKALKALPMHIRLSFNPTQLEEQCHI
Assay: dot blot; 100 µg β-LG on nitrocellulose, 400 pmol aptamer in PBS, 37 °C; Dot blot: PBS, 37 °C, 1 h, membrane blocked with 5% BSA/0.01% Tween 20; QCM-D: β-LG in PBS pH 3.5, 37 °C, aptamer 0.5 µM in TRIS with 0.1% BSA for immobilization; PBS (pH 7.4 stock) contains CaCl2 and MgCl2
Conditions: protein: native; tags: none; chain copies: 2; label: biotin; predicted secondary structure only

B1: Apt 356 (ssDNA)
DNA: GCCTGTTGTGAGCCTCCTAACCTGGTGTGCAAGGTGGACTCTCTTTATCTTGTTGTCAGTCTCATCACCGCATGCTTATTCTTGTCTCCC
modifications: 5'-biotin
binding result: binds
